The values below come from patent US20120034229A1 (UNIVERSITE CLAUDE BERNARD LYON 1, published 2012).

Assay [1] has as its target T1, mature form of alpha3 lacking the LG4/5 domain (human, UniProt Q16787-1 28-1348, limits assumed).
T1 construct: domain: mature form of alpha3 lacking the LG4/5 domain; Alpha3 subunit of LN5 purified from keratinocyte culture medium, reducing SDS-PAGE; also called alpha3 chain of mature LN5
T1 sequence (looked up): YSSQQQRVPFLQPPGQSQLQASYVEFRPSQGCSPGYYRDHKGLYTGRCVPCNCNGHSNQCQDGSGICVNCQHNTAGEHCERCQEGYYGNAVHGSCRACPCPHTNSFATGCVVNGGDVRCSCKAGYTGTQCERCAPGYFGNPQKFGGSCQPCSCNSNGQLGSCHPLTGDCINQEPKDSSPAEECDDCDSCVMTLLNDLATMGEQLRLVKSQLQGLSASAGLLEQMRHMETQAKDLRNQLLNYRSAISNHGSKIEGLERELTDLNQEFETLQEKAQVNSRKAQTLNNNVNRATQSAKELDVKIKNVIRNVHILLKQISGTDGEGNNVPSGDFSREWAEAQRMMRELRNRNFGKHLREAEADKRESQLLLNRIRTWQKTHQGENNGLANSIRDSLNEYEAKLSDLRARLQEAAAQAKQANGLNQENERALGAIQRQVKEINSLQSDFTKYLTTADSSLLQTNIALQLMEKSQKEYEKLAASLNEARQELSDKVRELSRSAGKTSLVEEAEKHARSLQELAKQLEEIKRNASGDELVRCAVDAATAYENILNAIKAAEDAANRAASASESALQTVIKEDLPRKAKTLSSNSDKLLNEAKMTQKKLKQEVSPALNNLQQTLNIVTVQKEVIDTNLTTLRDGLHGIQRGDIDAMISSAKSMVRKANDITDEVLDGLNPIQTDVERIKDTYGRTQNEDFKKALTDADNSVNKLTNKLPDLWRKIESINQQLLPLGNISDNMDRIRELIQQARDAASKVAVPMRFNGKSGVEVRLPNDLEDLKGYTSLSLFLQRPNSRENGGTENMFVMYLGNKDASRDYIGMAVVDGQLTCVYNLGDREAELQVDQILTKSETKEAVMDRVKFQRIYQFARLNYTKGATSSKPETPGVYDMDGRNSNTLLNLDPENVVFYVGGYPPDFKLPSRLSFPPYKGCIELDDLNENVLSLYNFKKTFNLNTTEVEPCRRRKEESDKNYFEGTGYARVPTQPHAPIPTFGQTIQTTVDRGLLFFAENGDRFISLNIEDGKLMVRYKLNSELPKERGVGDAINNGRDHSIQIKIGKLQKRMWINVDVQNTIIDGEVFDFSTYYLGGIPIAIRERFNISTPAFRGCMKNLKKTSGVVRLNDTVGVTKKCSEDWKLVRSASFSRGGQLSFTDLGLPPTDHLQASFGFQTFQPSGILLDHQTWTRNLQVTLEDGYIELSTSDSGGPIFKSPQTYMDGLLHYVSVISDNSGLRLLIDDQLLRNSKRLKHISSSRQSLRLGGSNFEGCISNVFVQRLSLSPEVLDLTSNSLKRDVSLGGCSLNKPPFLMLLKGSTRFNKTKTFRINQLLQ
In words: Western blot of purified LN5, reducing SDS-PAGE. Background: Immunoblotting shows a protein as a band on a membrane.

In assay [2] the target is T2, recombinant LG4/5 fragment of chain alpha3 of human laminin-5 (human, UniProt Q16787 2981-3333, limits assumed).
T2 construct: Recombinantly expressed and purified on heparin as in Okamoto et al. 2003; also called alpha3LG4/5 fragment; LG4/5 domain
T2 sequence: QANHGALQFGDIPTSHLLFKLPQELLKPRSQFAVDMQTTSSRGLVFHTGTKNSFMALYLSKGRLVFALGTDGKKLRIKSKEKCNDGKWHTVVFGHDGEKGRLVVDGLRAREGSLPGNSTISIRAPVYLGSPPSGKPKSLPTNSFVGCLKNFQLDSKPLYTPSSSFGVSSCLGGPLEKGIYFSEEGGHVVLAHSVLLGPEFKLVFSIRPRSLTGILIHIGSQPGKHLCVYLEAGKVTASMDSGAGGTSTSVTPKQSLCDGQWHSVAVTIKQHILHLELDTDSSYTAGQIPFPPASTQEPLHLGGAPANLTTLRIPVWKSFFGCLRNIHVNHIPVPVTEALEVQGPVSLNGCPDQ
Put plainly: Western blot of the purified recombinant LG4/5 fragment.

B1: 1H12 monoclonal antibody produced by the hybridoma cell line named 1H12 (C.N.C.M. I-3890) (antibody, V domains shown)
VH: VKLQQSGPELVKPGASVKISCKTSGYTFTEYTIHWVKQSHGKTLEWIGGINPKNGDTSYNQKFKGKATLTVDKSSNTAYMEFRSLTSEDSAVYYCASPDLPPMDYWGQGTTVTVSS
VL: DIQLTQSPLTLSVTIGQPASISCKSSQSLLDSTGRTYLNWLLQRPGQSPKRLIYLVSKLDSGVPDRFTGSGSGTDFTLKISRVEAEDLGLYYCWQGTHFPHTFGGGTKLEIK
notes: Mouse IgG1 kappa from hybridoma (supernatant or ascites); Ends of the V domains come from PCR primers; also called 1H12 mAb; mAb 1H12
Consider B1, for which the binding result in assay [1] is on record as “no binding”; in assay [2], “binds”.
